Assay results reported in patent US20210063414A1, “METHODS FOR PREVENTING AND/OR TREATING BONE LOSS CONDITIONS BY MODULATING IRISIN” (Dana-Farber Cancer Institute, Inc., priority 2018, published 2021).

Key:
integrin αV/β1 = biological target: T1, integrin αV/β1 (Homo sapiens, UniProt P05556+P06756); experiment: FAK phosphorylation in HEK293T cells with forced expression of integrin αV/β1; format: cell-based
T1 construct: expressed in transfected cells; host or cells: HEK293T
Protocol: 100 nM irisin was incubated with 5 nM indicated his-tag integrins followed by immunoprecipitation using Ni-NTA agaroses. Precipitated integrins and co-precipitated irisin were analyzed by immunoblot analysis. […] HEK293T cells were seeded and incubated until 50% cell density. The cells were transfected with 0.1 μg plasmids of indicated integrins. After 48 hours, the cells were re-split to indicated dose of vitronectin-coated plates. Cells were incubated with culture medium for 3 hours. Cells were lysed to detect the indicated protein level using immunoblot analysis. FIG. 15C and FIG. 15D show the immunoblot data. Cells were treated and analyzed as FIG. 14B except using plasmids encoding integrin α5/β1 or integrin α11/β1 (FIG. 15C) integrin αV/β1(FIG. 15D).
HEK293T cells were set up for experiments at 1×10^5 cells per well in 6 well plate. On day 2, cells were transiently transfected with the indicated plasmids with FuGENE® 6 reagent (Roche Applied Science) according to the manufacturer's protocol. […]
Cells were harvested in RIPA buffer containing protease-inhibitor cocktail and phosphataseinhibitor cocktail. […] Protein levels were analyzed via western blot using indicated antibody. […] Protein levels were analyzed using western blot against indicated antibody.

epididymal fat (eWAT) = experiment: Irisin injection in mice: thermogenic and creatine cycle gene mRNA in epididymal fat; format: in vivo; settings: irisin injections 6 days
Protocol: Eight week old mice were injected with indicated dose of irisin or 1 mg/kg CL316243 for 6 days. Epididymal fats (eWAT) were collected and indicated genes mRNA level was analyzed by qPCR. GATM is the first and rate-limiting step of creatine synthesis (Sandell et al. (2003) Proc. Natl. Acad. Sci. U.S.A. 100:4622-4627).
Certain materials and methods were used to generate the results described herein. For example, the data shown in FIG. 1A resulted from MLO-Y4 (an osteocyte-like cell line) cells treated with the indicated concentration of irisin and hydrogen peroxide for 4 hours. Cells were stained with Hoechst 33342 (ThermoFisher Scientific, catalog number H3570) and Eth-D1 (ThermoFisher Scientific, catalog number E1169) and analyzed to determine the percentage of cell death using ImageJ. […] Co-precipitated irisin was analyzed by immunoblot analysis against flag tag (Sigma Aldrich, catalog number A8592). The data shown in FIGS. 5A and 5B were generated from MLO-Y4 cells treated and analyzed as in the experiments used to generate the data shown in FIG. 2D, except that pre-treatment of 100 nM RGDS (FIG. 5A) or echistatin (R & D Systems Inc., catalog number 3202/100U) (FIG. 5B) for 10 minutes was performed before irisin treatment. […] Sclerostin mRNA level was analyzed by qPCR (FIG. 7A). […]

T1 sequence (P06756 31-889 limits assumed): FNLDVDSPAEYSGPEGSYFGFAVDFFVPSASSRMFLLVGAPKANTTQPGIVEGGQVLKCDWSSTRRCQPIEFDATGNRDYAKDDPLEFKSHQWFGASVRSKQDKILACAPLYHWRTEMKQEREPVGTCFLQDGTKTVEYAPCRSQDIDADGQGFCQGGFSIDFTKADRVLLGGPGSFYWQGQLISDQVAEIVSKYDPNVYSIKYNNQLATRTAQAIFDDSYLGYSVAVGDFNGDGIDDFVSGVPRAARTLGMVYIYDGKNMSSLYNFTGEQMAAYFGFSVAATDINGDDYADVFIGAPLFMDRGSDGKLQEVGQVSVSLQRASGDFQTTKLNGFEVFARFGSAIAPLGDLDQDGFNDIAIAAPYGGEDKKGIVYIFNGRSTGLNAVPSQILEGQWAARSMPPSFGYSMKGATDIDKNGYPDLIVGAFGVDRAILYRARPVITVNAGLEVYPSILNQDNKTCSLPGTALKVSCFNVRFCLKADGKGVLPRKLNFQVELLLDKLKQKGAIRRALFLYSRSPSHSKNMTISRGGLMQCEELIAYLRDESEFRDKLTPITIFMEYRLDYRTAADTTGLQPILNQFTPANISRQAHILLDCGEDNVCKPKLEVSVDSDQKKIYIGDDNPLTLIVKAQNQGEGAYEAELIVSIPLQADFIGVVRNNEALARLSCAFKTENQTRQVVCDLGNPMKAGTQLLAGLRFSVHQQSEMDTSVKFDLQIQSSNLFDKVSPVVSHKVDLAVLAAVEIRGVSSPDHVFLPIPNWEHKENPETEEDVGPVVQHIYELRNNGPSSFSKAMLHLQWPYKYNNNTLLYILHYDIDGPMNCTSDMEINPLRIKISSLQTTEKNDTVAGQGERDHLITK
T1 sequence (P06756 891-1048 partner limits assumed): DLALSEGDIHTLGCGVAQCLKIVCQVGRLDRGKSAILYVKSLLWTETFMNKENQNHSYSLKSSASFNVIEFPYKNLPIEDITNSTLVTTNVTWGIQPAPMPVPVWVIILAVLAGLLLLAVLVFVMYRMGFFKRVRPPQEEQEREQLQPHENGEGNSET
T1 sequence (P05556 21-798): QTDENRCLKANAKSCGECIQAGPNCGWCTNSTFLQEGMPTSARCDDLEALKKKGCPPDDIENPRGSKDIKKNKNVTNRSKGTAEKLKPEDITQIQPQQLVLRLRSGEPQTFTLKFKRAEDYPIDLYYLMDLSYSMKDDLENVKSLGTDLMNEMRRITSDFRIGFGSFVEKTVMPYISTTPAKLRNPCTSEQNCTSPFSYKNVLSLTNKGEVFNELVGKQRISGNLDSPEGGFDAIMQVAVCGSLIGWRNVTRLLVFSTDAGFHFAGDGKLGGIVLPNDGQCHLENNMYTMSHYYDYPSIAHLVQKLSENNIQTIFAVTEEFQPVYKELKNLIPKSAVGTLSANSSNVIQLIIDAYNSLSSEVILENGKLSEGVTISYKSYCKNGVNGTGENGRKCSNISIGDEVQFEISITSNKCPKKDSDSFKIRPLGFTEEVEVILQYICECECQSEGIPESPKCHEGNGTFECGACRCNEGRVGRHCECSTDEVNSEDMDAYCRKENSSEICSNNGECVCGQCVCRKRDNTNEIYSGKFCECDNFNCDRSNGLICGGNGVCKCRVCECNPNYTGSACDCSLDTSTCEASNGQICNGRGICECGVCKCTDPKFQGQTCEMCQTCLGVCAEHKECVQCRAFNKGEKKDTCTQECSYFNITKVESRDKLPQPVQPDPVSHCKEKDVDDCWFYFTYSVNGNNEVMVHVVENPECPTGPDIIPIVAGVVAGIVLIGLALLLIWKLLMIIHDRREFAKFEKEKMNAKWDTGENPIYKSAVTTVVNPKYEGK

B1: irisin: secreted cleaved form of FNDC5; recombinant human/mouse irisin with C-terminal his tag produced in HEK293 cells (protein)
chain: DSPSAPVNVTVRHLKANSAVVSWDVLEDEVVIGFAISQQKKDVRMLRFIQEVNTTTRSCALWDLEEDTEYIVHVQAISIQGQSPASEPVLFKTPREAEKMASKNKDEVTMKE
modifications: left off: small tags and cut ends
notes: secreted cleaved form of FNDC5; recombinant human/mouse irisin with C-terminal his tag produced in HEK293 cells
- phosphorylation of FAK upon irisin treatment (integrin αV/β1): increased FAK phosphorylation
- expression of futile creatine cycle genes (GATM, CKMT2, CKB) (epididymal fat (eWAT)): also increased expression
- mRNAs of classical thermogenic pathway genes (UCP1, DIO 2) (epididymal fat (eWAT)): increased expression
